# Measured values from patent US20080213836.
# T1: human fibrinogen, P02671
# T1 chain 1: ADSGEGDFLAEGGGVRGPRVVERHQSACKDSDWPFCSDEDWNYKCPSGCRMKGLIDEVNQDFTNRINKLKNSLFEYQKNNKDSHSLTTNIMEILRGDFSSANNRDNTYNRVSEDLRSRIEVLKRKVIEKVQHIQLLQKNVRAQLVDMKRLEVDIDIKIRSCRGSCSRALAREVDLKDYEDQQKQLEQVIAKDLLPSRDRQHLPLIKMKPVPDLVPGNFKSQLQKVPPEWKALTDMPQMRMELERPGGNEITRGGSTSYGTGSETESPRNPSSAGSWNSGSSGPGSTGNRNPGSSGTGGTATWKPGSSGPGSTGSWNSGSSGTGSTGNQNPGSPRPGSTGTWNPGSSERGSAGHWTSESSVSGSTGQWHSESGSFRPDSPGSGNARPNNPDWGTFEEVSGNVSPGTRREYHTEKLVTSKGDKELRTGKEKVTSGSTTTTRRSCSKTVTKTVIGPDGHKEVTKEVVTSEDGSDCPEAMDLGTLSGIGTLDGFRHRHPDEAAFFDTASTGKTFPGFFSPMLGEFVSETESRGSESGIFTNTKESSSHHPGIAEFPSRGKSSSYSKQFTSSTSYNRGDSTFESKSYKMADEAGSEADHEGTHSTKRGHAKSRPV
# T1 chain 2: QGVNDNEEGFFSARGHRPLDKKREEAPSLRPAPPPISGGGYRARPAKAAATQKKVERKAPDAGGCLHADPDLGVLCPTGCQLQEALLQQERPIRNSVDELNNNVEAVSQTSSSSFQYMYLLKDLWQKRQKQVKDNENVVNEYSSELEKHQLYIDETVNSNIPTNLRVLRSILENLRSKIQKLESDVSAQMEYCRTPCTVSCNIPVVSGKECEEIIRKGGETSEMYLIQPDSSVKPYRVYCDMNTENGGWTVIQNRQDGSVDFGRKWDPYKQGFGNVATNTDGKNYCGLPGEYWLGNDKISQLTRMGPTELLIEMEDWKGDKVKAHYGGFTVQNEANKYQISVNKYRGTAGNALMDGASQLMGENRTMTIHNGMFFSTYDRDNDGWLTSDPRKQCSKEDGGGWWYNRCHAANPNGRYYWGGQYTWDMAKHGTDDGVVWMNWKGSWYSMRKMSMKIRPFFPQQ
# T1 chain 3: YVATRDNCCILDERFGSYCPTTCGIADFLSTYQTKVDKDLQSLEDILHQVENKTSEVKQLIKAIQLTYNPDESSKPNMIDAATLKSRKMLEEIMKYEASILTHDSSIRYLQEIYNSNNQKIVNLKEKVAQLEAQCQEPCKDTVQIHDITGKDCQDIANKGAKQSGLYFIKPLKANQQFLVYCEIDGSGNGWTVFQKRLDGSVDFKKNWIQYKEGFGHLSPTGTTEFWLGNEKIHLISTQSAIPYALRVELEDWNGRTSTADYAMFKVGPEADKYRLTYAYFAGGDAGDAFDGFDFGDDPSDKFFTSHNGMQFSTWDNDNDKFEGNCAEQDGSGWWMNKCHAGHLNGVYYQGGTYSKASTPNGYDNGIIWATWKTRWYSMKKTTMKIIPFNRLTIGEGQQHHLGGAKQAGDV
# T2: Gly-Asp-Asp-Asp-Asp-Lys-β-naphthylamide
# T2 chain: GDDDDK
# T3: recombinant fusion protein of human kallikrein 8 (hK8), O60259
# T3 sequence (O60259 whole entry, looked up): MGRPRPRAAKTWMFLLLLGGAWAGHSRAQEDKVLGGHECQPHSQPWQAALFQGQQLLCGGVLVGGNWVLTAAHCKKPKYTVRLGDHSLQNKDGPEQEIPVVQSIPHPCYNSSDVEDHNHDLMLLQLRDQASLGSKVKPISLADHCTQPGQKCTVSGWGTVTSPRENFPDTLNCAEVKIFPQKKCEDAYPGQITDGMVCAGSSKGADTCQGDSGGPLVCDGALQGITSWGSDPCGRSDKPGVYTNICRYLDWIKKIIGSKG
# T4: Boc-Glu(OBzl)-Ala-Arg-MCA
# T4 chain: EAR
# T5: Z-Phe-Arg-MCA
# T5 chain: FR
# T6: human high-molecular-weight (HMW) kininogen, P01042
# T6 chain: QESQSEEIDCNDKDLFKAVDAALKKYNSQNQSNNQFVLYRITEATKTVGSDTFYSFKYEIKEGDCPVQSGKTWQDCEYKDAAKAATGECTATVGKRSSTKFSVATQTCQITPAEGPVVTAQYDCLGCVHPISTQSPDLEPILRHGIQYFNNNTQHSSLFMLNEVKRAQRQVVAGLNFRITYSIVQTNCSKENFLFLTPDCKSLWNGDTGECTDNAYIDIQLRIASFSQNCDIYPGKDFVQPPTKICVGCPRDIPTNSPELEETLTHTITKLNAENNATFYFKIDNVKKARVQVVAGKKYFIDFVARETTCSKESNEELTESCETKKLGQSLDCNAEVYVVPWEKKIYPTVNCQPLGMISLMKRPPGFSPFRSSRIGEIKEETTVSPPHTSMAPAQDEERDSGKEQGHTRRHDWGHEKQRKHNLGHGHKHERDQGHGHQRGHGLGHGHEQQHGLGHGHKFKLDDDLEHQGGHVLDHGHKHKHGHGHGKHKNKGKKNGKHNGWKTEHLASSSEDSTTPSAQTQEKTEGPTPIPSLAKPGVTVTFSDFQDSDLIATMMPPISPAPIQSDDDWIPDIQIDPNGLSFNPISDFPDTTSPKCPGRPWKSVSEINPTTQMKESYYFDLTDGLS
# T7: Pro-Phe-Arg-MCA
# T7 chain: PFR
# B1: porcine EP serine protease domain (Ile800 to His1034) (protein)
# chain: IVGGNDSREGAWPWVVALYYNGQLLCGASLVSRDWLVSAAHCVYGRNLEPSKWKAILGLHMTSNLTSPQIVTRLIDEIVINPHYNRRRKDSDIAMMHLEFKVNYTDYIQPICLPEENQVFPPGRICSIAGWGKVIYQGSPADILQEADVPLLSNEKCQQQMPEYNITENMMCAGYEEGGIDSCQGDSGGPLMCLENNRWLLAGVTSFGYQCALPNRPGVYARVPKFTEWIQSFLH
# Experiments:
# [1] = target: Human plasma fibronectin, P02751
# human fibrinogen, P02671 = target: T1, human fibrinogen, P02671
# [2] = target: T2, Gly-Asp-Asp-Asp-Asp-Lys-β-naphthylamide
# [3] = target: T3, recombinant fusion protein of human …
# [4] = target: T4, Boc-Glu(OBzl)-Ala-Arg-MCA
# [5] = target: recombinant fusion protein of Medaka gelatinase A
# Z-Phe-Arg-MCA = target: T5, Z-Phe-Arg-MCA
# [6] = target: D4K-cleavage site-containing control protein (Novagen)
# [7] = target: human single-chain tPA fusion protein with N-terminal His-tag/EP-cleavage site, P00750
# [8] = target: T6, human high-molecular-weight (HMW) …
# Pro-Phe-Arg-MCA = target: T7, Pro-Phe-Arg-MCA
# Chain of human single-chain tPA fusion protein with N-terminal His-tag/EP-cleavage site, P00750 (P00750 whole entry, looked up, the tested form may be a part): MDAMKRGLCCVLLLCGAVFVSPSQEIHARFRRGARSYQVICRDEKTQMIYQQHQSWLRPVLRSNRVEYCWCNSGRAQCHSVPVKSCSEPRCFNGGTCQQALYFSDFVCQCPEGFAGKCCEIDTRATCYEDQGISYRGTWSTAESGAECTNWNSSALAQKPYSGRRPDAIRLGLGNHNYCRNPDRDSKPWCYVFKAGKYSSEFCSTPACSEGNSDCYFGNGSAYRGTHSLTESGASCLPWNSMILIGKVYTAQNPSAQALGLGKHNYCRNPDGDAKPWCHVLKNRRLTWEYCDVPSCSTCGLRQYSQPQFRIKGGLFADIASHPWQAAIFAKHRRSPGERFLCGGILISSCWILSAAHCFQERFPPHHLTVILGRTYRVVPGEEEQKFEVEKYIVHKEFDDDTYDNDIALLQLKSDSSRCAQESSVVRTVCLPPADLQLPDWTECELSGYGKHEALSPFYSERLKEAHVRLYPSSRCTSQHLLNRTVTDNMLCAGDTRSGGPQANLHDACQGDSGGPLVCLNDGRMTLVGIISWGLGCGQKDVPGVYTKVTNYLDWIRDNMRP
# Chain of Human plasma fibronectin, P02751 (P02751 other isoform, or with tags, fused parts or gaps): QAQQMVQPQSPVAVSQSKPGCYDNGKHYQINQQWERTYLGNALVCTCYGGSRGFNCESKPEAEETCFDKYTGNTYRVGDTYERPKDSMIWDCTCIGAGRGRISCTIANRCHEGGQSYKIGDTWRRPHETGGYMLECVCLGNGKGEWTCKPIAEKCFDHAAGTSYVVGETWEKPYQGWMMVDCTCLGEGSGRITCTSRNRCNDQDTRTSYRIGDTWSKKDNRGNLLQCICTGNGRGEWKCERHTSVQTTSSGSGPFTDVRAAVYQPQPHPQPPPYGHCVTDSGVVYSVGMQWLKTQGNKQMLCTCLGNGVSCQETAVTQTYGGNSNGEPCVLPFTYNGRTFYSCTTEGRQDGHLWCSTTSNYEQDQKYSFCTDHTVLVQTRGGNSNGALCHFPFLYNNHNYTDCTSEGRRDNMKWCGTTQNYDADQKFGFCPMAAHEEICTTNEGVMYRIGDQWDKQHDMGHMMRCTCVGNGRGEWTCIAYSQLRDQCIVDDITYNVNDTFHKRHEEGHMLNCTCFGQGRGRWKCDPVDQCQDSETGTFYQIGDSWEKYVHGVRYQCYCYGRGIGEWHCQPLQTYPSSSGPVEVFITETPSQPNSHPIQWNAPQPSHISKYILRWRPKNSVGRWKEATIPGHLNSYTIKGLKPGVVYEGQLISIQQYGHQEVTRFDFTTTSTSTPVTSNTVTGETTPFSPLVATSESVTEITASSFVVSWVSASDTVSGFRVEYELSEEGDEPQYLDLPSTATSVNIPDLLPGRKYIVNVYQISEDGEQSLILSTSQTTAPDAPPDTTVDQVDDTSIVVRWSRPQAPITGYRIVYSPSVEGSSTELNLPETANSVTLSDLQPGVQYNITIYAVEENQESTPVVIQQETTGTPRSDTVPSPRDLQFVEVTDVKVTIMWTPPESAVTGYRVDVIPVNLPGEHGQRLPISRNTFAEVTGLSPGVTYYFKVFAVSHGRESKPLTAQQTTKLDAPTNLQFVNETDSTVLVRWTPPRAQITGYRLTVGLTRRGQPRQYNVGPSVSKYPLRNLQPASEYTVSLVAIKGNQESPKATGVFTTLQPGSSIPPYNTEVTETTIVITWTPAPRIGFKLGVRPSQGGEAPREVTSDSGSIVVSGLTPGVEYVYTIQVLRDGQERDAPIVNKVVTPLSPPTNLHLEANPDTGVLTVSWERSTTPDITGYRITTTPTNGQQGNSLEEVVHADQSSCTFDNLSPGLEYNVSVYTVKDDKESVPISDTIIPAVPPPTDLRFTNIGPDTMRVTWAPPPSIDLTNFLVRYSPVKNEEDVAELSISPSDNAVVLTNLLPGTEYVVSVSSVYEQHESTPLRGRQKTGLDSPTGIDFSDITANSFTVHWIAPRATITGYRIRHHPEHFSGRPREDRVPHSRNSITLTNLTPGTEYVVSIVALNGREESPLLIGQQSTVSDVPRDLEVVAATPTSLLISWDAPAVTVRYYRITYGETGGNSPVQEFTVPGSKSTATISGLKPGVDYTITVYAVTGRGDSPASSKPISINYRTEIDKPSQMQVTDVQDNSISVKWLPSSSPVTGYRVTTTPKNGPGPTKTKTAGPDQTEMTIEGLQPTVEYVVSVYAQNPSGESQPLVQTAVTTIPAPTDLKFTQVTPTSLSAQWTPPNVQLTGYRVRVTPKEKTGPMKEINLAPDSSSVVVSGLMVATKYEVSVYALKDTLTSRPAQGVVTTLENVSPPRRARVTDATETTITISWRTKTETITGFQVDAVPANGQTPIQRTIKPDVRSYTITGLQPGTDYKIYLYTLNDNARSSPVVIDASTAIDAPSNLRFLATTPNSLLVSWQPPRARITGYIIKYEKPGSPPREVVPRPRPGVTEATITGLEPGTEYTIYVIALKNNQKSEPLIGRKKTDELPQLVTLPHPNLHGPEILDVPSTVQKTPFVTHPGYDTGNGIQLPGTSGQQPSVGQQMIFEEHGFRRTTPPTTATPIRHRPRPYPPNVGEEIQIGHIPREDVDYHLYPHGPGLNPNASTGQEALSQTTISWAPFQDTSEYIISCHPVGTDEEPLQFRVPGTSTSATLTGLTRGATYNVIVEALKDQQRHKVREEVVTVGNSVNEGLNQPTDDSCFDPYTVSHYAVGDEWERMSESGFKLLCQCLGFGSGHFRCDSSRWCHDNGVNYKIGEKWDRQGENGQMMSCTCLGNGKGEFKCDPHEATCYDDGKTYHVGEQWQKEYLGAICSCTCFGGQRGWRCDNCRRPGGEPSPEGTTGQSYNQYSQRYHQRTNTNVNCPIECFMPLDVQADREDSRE
protein,measurement,setting,value
B1,proteolytic activity (SDS-PAGE),[1],these substrates were detectably hydrolyzed by the mammalian proteases
same,nonspecific proteolytic activity (SDS-PAGE),"human fibrinogen, P02671",both of which were degraded noticeably by mammalian EP proteases
same,Km,[2],400 µM
same,kcat,[2],8.83 s⁻¹
same,kcat/Km (mM^-1 · min^-1),[2],1300
same,cleavage of the fusion protein (SDS-PAGE),[3],the porcine protease extensively degraded the substrate
same,Km,[4],300 µM
same,kcat,[4],1.83 s⁻¹
same,kcat/Km (mM^-1 · min^-1),[4],370
same,proteolytic activity (SDS-PAGE),mouse laminin,these substrates were detectably hydrolyzed by the mammalian proteases
same,cleavage of the fusion protein (SDS-PAGE),[5],the fusion protein was extensively digested by mammalian EP serine proteases
same,Km,Z-Phe-Arg-MCA,200 µM
same,kcat,Z-Phe-Arg-MCA,0.917 s⁻¹
same,kcat/Km (mM^-1 · min^-1),Z-Phe-Arg-MCA,280
same,cleavage of the fusion protein (SDS-PAGE),[6],the mammalian enzymes not only produced the two expected polypeptides but also further degraded the products
same,proteolytic activity (gelatin zymography),gelatin,these substrates were detectably hydrolyzed by the mammalian proteases
same,cleavage of the fusion protein (SDS-PAGE/Western blot),[7],"but not with mammalian ones, showed two polypeptides (53- and 55-kDa)"
same,nonspecific proteolytic activity (SDS-PAGE),[8],both of which were degraded noticeably by mammalian EP proteases
same,Km,Pro-Phe-Arg-MCA,3900 µM
same,kcat,Pro-Phe-Arg-MCA,5 s⁻¹
same,kcat/Km (mM^-1 · min^-1),Pro-Phe-Arg-MCA,77
